# Measurements published in patent US20220259284A1, “CA2 COMPOSITIONS AND METHODS FOR TUNABLE REGULATION” (Obsidian Therapeutics, Inc., priority 2019, published 2022).
# How the values were obtained:
# [1] = system: CD40L constructs regulated by Carbonic anhydrase DDs in T cells; assay: Acetazolamide dose response of CD40L expression in transduced T cells, FACS (MFI, % CD40L positive); type: cell-based, human; conditions: for CD40L MFI / Percentage CD40L positive cells: 24 hours; for CD40L MFI: FACS
# Procedure: (§1) CD40L constructs regulated by Carbonic anhydrase DDs were generated and cloned into lentiviral vectors. Purified T cells were thawed and cultured with aCD3 aCD28 Dynabeads (in the ratio of 3 beads to 1 T cell).
# The constructs were transduced in T cells the next day. […] 24 hours after the addition of ligand T cells were stained for CD40L expression and analyzed using FACS.
# [2] = system: CD40L constructs regulated by Carbonic anhydrase DDs in T cells; assay: Time course regulation of CD40L in transduced T cells, FACS (MFI, % CD40L positive); type: cell-based, human; conditions: constitutive CD40L
# Procedure: as §1
# A control of empty vector (EV) and constitutive CD40L (OT-001661; amino acid SEQ ID NO. 6067 and nucleic acid SEQ ID NO. 6068) was also evaluated. Cells were fixed at 2, 4, 6, 8, 24, and 48 hours and then T cells were stained for CD40L expression and analyzed using FACS. The results are shown as median fluorescence intensity in Table 12 and as percentage CD40L positive cells in Table 13.
# [3] = system: CA2 regulated CD40L in activated T cells; assay: Regulation of CD40L in T cells by CA2, percent of cells expressing CD40L (surface expression); type: cell-based, human; conditions: ligand N/A
# Procedure: To test regulation, activated T cells were lentivirally transduced with CA2 regulated CD40L (OT-001990) and a control of CD40L (OT-001661). Two days later, cells were treated with vehicle or […] ligand for 24h as described in Table 14 after which they were analyzed for CD40L surface expression. In the table, “Acz” is Acetazolamide.
# [4] = system: monocyte derived dendritic cells (DCs), Nalm6; assay: IFNg and IL-12 in supernatant of DC + Nalm6 + CAR+ T cell co-culture, MSD; type: cell-based; conditions: DC + T cells + Nalm6, no ligand stated, supernatant 24 hours
# Procedure: To measure the effect of CD40L expression that is tuned by the biocircuits of the present disclosure in the context of CARs, T cells expressing any of the CA2 CD40L-CAR constructs described herein were co-cultured with monocyte derived dendritic cells (DCs).
# In vitro cultures were set up by adding 1×10^4 DCs into culture with 1×10^5 Nalm6 and 1×10^5 CAR+ T cells. […] Supernatants were collected 24 hours later and analyzed for IFNg and IL-12 by MSD assay. OT-001661 (SEQ ID NO. 6067; encoded by SEQ ID NO. 6068), that expressed CD40L payloads constitutively was used as control.
# CD40L in HEK293T cells = assay: Soluble CD40L (shedding) in medium of transfected HEK293T cells, ELISA; type: cell-based, human; conditions: HEK293T cell culture medium, no ligand stated, Repeat 1
# [5] = system: CA2 regulated CD40L in activated T cells; assay: Regulation of CD40L in T cells by CA2, percent of cells expressing CD40L (surface expression); type: cell-based, human; conditions: All Cells, ligand N/A
molecule,measurement,setting,value
CC(=O)Nc1nnc(S(N)(=O)=O)s1 [Acetazolamide],CD40L MFI,"[1]; CD4+ T cells with CA2 DD CD40L construct (OT-001990), Acetazolamide 0.01 μM",112
same,Percentage CD40L positive cells,"[1]; CD4+ T cells with CA2 DD regulated CD40L construct, Acetazolamide 0.01 μM",4.13%
same,Percentage CD40L positive cells,"[1]; CD4+ T cells with CA2 DD regulated CD40L construct, Acetazolamide 0.05 μM",5.44%
same,Percentage CD40L positive cells,"[1]; CD4+ T cells with CA2 DD regulated CD40L construct, Acetazolamide 0.2 μM",10.3%
same,Percentage CD40L positive cells,"[1]; CD4+ T cells with CA2 DD regulated CD40L construct, Acetazolamide 0.8 μM",45.6%
same,Percentage CD40L positive cells,"[1]; CD4+ T cells with CA2 DD regulated CD40L construct, Acetazolamide 3.1 μM",69.3%
same,Percentage CD40L positive cells,"[1]; CD4+ T cells with CA2 DD regulated CD40L construct, Acetazolamide 12.5 μM",90.3%
same,Percentage CD40L positive cells,"[1]; CD4+ T cells with CA2 DD regulated CD40L construct, Acetazolamide 50 μM",91.1%
same,CD40L MFI,"[1]; CD4+ T cells, Acetazolamide 0.2 μM",185
same,CD40L MFI,"[1]; CD4+ T cells, Acetazolamide 0.8 μM",481
same,CD40L MFI,"[1]; CD4+ T cells, Acetazolamide 3.1 μM",840
same,CD40L MFI,"[1]; CD4+ T cells, Acetazolamide 12.5 μM",2783
same,CD40L MFI,"[1]; CD4+ T cells, Acetazolamide 50 μM",3728
same,amount of Acetazolamide required to achieve stabilization of CD40L,[1]; CD4+ and CD8+ T cells,within the level of the ligand that can be achieved in humans
same,CD40L MFI,"[1]; CD8+ T cells with CA2 DD CD40L construct (OT-001990), Acetazolamide 0.01 μM",105
same,Percentage CD40L positive cells,"[1]; CD8+ T cells with CA2 DD regulated CD40L construct, Acetazolamide 0.01 μM",0.59%
same,Percentage CD40L positive cells,"[1]; CD8+ T cells with CA2 DD regulated CD40L construct, Acetazolamide 0.05 μM",0.44%
same,Percentage CD40L positive cells,"[1]; CD8+ T cells with CA2 DD regulated CD40L construct, Acetazolamide 0.2 μM",1.48%
same,Percentage CD40L positive cells,"[1]; CD8+ T cells with CA2 DD regulated CD40L construct, Acetazolamide 0.8 μM",25.2%
same,Percentage CD40L positive cells,"[1]; CD8+ T cells with CA2 DD regulated CD40L construct, Acetazolamide 3.1 μM",41.2%
same,Percentage CD40L positive cells,"[1]; CD8+ T cells with CA2 DD regulated CD40L construct, Acetazolamide 12.5 μM",77.2%
same,Percentage CD40L positive cells,"[1]; CD8+ T cells with CA2 DD regulated CD40L construct, Acetazolamide 50 μM",80.7%
same,CD40L MFI,"[1]; CD8+ T cells, Acetazolamide 0.05 μM",104
same,CD40L MFI,"[1]; CD8+ T cells, Acetazolamide 0.2 μM",136
same,CD40L MFI,"[1]; CD8+ T cells, Acetazolamide 0.8 μM",307
same,CD40L MFI,"[1]; CD8+ T cells, Acetazolamide 3.1 μM",380
same,CD40L MFI,"[1]; CD8+ T cells, Acetazolamide 12.5 μM",1599
same,CD40L MFI,"[1]; CD8+ T cells, Acetazolamide 50 μM",2184
"OT-001661: constitutive CD40L control; amino acid SEQ ID NO. 6067 and nucleic acid SEQ ID NO. 6068 (protein, constitutive CD40L control; 6068) MHMIETYNQTSPRSAATGLPISMKIFMYLLTVFLITQMIGSALFAVYLHRRLDKIEDERNLHEDFVFMKTIQRCNTGERSLSLLNCEEIKSQFEGFVKDIMLNKEETKKENSFEMQKGDQNPQIAAHVISEASSKTTSVLQWAEKGYYTMSNNLVTLENGKQLTVKRQGLYYIYAQVTFCSNREASSQAPFIASLCLKSPGRFERILLRAANTHSSAKPCGQQSIHLGGVFELQPGASVFVNVTDPSQVSHGTGFTSFGLLKL",CD40L MFI,"[2]; CD4+ T cells, 2 hours",4042
same,Percentage CD40L positive cells,"[2]; CD4+ T cells, 2 hours",72.8%
same,CD40L MFI,"[2]; CD4+ T cells, 4 hours",4651
same,Percentage CD40L positive cells,"[2]; CD4+ T cells, 4 hours",77%
same,CD40L MFI,"[2]; CD4+ T cells, 6 hours",3156
same,Percentage CD40L positive cells,"[2]; CD4+ T cells, 6 hours",67.2%
same,CD40L MFI,"[2]; CD4+ T cells, 24 hours",9491
same,Percentage CD40L positive cells,"[2]; CD4+ T cells, 24 hours",93.3%
same,CD40L MFI,"[2]; CD4+ T cells, 48 hours",5639
same,Percentage CD40L positive cells,"[2]; CD4+ T cells, 48 hours",88.5%
same,CD40L MFI,"[2]; CD8+ T cells, 2 hours",2212
same,Percentage CD40L positive cells,"[2]; CD8+ T cells, 2 hours",56.9%
same,CD40L MFI,"[2]; CD8+ T cells, 4 hours",2994
same,Percentage CD40L positive cells,"[2]; CD8+ T cells, 4 hours",63.2%
same,CD40L MFI,"[2]; CD8+ T cells, 6 hours",1773
same,Percentage CD40L positive cells,"[2]; CD8+ T cells, 6 hours",48.5%
same,CD40L MFI,"[2]; CD8+ T cells, 24 hours",3563
same,Percentage CD40L positive cells,"[2]; CD8+ T cells, 24 hours",71.2%
same,CD40L MFI,"[2]; CD8+ T cells, 48 hours",2313
same,Percentage CD40L positive cells,"[2]; CD8+ T cells, 48 hours",71.1%
same,MFI,[3]; All Cells,20451
same,CD40L positive,[3]; CD4+ T cells,98.7%
same,MFI,[3]; CD4+ T cells,24489
same,CD40L positive,[3]; CD8+ T cells,97.8%
same,MFI,[3]; CD8+ T cells,14352
same,IFNg,[4],1579.21 pg/mL
same,IL12,[4],58.88 pg/mL
same,sCD40L,CD40L in HEK293T cells,2900 pg/mL
same,CD40L positive,[5],98%
